US20210371536A1 (SEOUL NATIONAL UNIVERSITY R AND DB FOUNDATION, published 2021)

B1: PRb-CN32 x cotinine scFv-Cκ-scFv fusion protein (bispecific antibody) (bispecific antibody)
chain: LTQPSSVSANLGETVKITCSGGSNAGSYYYGWYQQKSPGSAPVTVIYSNNQRPSDIPSRFSGSTSGSTSTLTITGVQVDDEAVYFCGSGDSSSIAAFGAGTTLTVLGQSSRSSGGGGSSGGGGSAVTLDESGGGLQTPRGTLSLVCKASGFTFSSFNMFWVRQAPGKGLEFVAGISTTGRYTGYGSAVQGRGTISRDNGQSTVRLQLNNLRAEDTGTYYCAKSAGSTYSYWDSDAGLIDAWGHGTEVIVSSTSGGGGSGGGGSGGGGSRTVAAPSVFIFPPSDEQLKSGTASVVCLLNNFYPREAKVQWKVDNALQSGNSQESVTEQDSKDSTYSLSSTLTLSKADYEKHKVYACEVTHQGLSLPVTKSFNRGESGGGGSGGGGSGGGGSDIQMTQSPSSLSASVGDRVTITCQSSQSPYSNEWLSWYQQKPGKAPKLLIYRISTLASGVPSRFSGSRSGTDFTLTISSLQPEDFATYYCAGGYNFGLFLFGQGTKVEIKGQSSRSSGGGGSSGGGGSEVQLVESGGGLVQPGGSLRLSCAASGHLRRRDWMNWVRQAPGKGLEWVAAIGRSGDTYYATWAKGRFTISADTSKNTAYLQMNSLRAEDTAVYYCSRIPYFGWNNGDIWGQGTLVTVSS
notes: also called PRb-32; PRb-CN32 bispecific scFv-Cκ-scFv
B2: mPDGF-BB-biotin (ligand, mouse, UniProt P31240 82-190, looked up)
chain: SLGSLAAAEPAVIAECKTRTEVFQISRNLIDRTNANFLVWPPCVEVQRCSGCCNNRNVQCRASQVQMRPVQVRKIEIVRKKPIFKKATVTLEDHLACKCETIVTPRPVT
modifications: biotinylated (biotin-xx microscale protein labeling kit); sites not stated
notes: also called biotin-mPDGF-BB

Tests used:
[1] = target: hPDGFR-β on human pericyte cells (human, UniProt P09619 33-1106); assay: cell-based or functional assay
Sequence of hPDGFR-β on human pericyte cells (P09619 33-1106): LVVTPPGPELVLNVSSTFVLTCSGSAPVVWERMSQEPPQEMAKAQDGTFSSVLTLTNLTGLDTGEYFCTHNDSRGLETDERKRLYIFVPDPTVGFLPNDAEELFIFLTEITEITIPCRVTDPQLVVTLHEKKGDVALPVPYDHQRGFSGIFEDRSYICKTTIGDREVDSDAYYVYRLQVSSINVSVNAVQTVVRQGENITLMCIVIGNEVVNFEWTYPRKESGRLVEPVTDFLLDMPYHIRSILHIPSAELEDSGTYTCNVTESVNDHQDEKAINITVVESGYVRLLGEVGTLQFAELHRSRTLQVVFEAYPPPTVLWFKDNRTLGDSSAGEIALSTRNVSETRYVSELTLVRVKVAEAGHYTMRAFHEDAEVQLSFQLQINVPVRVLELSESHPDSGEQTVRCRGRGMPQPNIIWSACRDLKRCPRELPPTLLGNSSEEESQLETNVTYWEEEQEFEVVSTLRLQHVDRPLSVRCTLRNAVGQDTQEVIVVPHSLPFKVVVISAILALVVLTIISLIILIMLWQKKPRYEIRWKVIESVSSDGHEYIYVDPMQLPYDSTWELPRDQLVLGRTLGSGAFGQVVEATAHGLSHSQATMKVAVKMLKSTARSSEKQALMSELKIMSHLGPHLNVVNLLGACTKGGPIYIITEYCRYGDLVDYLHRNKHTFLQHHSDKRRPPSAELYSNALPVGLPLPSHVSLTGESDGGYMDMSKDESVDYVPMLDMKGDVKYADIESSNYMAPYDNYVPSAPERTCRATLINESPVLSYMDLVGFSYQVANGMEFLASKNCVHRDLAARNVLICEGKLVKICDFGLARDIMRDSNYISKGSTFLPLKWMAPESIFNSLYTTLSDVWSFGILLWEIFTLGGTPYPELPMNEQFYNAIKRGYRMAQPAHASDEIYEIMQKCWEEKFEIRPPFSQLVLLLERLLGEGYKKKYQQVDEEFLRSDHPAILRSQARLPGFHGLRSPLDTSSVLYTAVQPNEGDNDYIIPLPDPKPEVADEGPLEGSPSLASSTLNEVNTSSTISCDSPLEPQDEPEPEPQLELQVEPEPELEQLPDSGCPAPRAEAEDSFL

[2] = target: T1, cynomolgus monkey PDGFR-β (Fc chimera) (cynomolgus monkey); assay: cross-species ELISA on coated antigen, 100 nM bispecific, HRP-anti-human Cκ detection
T1 construct: not shown: human Fc (hFc) and its junction to the receptor part
T1 chain: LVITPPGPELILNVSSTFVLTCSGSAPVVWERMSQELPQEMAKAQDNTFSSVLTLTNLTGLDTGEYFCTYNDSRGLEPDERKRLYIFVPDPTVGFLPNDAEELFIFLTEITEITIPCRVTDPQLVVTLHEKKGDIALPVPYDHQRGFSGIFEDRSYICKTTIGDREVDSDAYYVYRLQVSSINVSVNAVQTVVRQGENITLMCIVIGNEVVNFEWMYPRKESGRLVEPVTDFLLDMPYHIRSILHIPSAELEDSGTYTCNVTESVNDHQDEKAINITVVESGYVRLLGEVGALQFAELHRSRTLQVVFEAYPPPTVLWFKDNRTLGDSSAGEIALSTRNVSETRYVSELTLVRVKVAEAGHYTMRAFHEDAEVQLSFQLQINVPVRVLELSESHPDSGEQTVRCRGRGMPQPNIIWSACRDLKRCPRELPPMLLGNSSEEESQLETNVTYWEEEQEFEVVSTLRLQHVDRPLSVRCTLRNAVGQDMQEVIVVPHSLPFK

[3] = target: T2, Sus scrofa PDGFR-β-Fc chimera (Sus scrofa, UniProt Q6QNF3 33-530 (dog entry)); assay: as above
T2 construct: also called Sus crowfa PDGFR-β; not shown: human Fc (hFc) and its junction to the receptor part
T2 chain: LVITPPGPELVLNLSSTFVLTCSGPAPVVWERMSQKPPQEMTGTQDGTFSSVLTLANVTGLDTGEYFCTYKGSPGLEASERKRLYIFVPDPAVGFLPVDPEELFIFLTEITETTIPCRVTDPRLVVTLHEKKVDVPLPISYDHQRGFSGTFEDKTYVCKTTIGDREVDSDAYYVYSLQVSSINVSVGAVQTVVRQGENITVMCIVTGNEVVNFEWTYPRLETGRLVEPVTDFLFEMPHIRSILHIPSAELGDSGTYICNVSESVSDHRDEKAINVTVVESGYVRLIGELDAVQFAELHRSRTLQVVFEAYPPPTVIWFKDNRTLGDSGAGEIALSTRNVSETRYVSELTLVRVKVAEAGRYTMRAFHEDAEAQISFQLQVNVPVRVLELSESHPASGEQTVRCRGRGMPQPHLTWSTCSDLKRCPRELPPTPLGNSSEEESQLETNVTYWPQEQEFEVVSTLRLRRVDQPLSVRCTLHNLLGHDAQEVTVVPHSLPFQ

mPDGFR-β on NIH3T3 cells [4] = target: T3, mPDGFR-β on NIH3T3 cells (mouse, UniProt P05622 32-1098); assay: flow cytometry on NIH3T3 cells expressing mPDGFR-β, 100 nM, APC-anti human Cκ detection
T3 construct: whole, on cells; also called NIH3T3 cells expressing mPDGFR-β; PDGFR-β present on the cell surface
T3 sequence (P05622 32-1098): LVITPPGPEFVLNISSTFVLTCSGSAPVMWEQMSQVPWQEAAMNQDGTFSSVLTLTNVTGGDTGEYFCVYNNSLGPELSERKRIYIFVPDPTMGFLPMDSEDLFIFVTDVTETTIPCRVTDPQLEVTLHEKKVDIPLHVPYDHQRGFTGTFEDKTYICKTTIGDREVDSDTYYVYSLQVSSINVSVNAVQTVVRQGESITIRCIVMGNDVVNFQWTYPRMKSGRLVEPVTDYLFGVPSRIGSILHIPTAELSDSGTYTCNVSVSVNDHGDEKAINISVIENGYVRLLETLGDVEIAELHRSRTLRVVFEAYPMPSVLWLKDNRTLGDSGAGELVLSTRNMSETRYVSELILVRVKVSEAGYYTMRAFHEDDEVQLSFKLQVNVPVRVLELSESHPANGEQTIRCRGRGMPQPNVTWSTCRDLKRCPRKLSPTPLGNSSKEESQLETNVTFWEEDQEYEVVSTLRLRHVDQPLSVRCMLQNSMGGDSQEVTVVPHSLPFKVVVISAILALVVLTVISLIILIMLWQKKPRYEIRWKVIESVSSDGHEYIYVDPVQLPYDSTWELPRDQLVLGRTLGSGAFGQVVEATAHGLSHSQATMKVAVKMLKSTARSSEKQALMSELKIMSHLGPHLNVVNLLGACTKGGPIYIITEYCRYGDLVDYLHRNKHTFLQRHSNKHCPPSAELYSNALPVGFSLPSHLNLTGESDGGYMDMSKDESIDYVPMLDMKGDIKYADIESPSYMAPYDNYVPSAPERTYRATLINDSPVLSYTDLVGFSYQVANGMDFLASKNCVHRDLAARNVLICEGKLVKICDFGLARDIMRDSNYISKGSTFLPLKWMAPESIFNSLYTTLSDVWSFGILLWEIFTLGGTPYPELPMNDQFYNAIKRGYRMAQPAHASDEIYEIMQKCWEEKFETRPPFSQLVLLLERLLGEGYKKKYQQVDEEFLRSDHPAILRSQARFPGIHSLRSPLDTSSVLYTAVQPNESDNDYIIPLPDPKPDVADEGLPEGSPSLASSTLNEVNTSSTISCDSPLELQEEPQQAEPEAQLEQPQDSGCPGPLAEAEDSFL

mPDGFR-β on NIH3T3 cells [5] = target: T3, mPDGFR-β on NIH3T3 cells; assay: flow cytometry on NIH3T3 cells expressing mPDGFR-β, streptavidin-PE detection
Experimental: The cells were treated with APC-anti human Cκ antibody and streptavidin-PE.
After washing, it was classified and analyzed with a FACS Canto II instrument (BD Biosciences, San Jose, Calif., USA). 10,000 cells were used for each measurement, and the results were analyzed by FlowJo (Tree Star, Ashland, Oreg., USA).

| Binder | IC50 (nM) of relative cell viability (cellular ATP), human pericyte cells, bispecific complexed with cot-duo, with hPDGF-BB [1] [nM] | IC50 (nM) of relative cell viability (cellular ATP), human pericyte cells, bispecific complexed with cot-duo, without hPDGF-BB [1] [nM] | binding result [2] | binding result [3] | binding result (mPDGFR-β on NIH3T3 cells [4]) | binding result (mPDGFR-β on NIH3T3 cells [5]) |
| --- | --- | --- | --- | --- | --- | --- |
| B1 | 0.87 | 0.78 | binds | binds | binds | – |
| B2 | – | – | – | – | – | binds |
